The nanobody polyreactivity screen of Harvey et al. (2022)

Assay: yeast display, Sf9 membrane polyspecificity reagent, FACS + sequencing; frameworks hold sequencing errors
Procedure, shortened: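 Synthetic nanobody libraries on Saccharomyces cerevisiae BJ5465 were galactose-induced for 36–48 hours, stained 1 hour at 4 °C with 10% biotinylated, detergent-solubilized Sf9 membrane reagent and enriched on streptavidin microbeads. FACS then separated cells into low and high (top ~1%) gates by anti-HA (expression) and streptavidin (reagent binding) fluorescence. Genes were colony-PCR amplified, MiSeq 2 × 250 sequenced and CDR-length filtered. A clone's polyreactivity label is that of its gate of origin.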

Row | Sequence | polyreactivity (PSR sort gate)
1 | QVQLVDSGGGLVQAGGSLRLSCAASGITFRYYAMGWYRQAPGKERELVAAITRGGRTNYADSVKGRFTISRDNAKNTVYLQKNSLKPEETAVYYCATGRDSNFGNSYYYWGQGTQVTVSS | high polyreactivity
2 | QVQLVDSGGGLVQAGGSLRLSCAASGLTFSTYAKGWYRQAPGTERELVAVIRRTGSTYYADSVKGRFTISRDNAMNTVYLHMNGLKPEDNAVYYFATARRHVSGYDFWGQCTQVTVSS | high polyreactivity
3 | QVQLVDSGGGLVQAGGSLRLSCAASGRIFGYNAMGWSRQAPGKERELVAAITSDARTNYADSVKGRFTISRDNAKNTVYLQMISLKPEDTAVYYCAARRYPPRMDYWGHGTQVTVSS | high polyreactivity
4 | QVQLVDSGGGLVQAGGSLRLSCAASGRIFPYYAMGWYRQAPGKERELVAAISSGGSTKYADSVKGRFTISRDNAKNTVYLQMNSLKPEDTAVYYCAKDPFPWALFDYWGQGTLVTVSS | low polyreactivity
5 | QVQLVDSGGGLVQAGGSLRLSCAASGRIFRWNAMGWYRQAPGKERELVAVISSGGSTNYADSVKGRFTISRDNAKNTVYLQMNSLKPEDTAVYYCAKGLIRYSHLDYWGQGTQVTVSS | low polyreactivity
6 | QVQLVDSGGGLVQAGGSLRLSCAASGRIFYTNAMGWYIQEPGKERELVAAIDYSDSTTYYADSVKGRFTISRDNAKNTVYLQMNSLKPEDTAVYYCAAESYLYTVTFEYWGQGTQVTVSS | high polyreactivity
7 | QVQLVDSGGGLVQAGGSLRLSCAASGRILYANAMGWYRQAPGKERELVAAIRYSDDSTYYADSVKGRFTISRDNAKNTVYLHMNSLKPEDTAVYYCNADYLRWDIWYWHGYDYWGQGTQVTVSS | high polyreactivity
8 | QVQLVDSGGGLVQAGGSLRLSCAASGRIVELYAMGGYRQAPGKEREMVAVITNGGSTYYADSVKGRFTISRDNAKNTVYLQMNSLKPEDTAFYFCNARRGYNRVGGSYGYWGQGTQVTVSS | low polyreactivity
9 | QVQLVDSGGGLVQAGGSLRLSCAASGRNFSPYTMGWYRQAPGKVREMVAAIRSGDGRTYYADSVKGRFTISRDNAKNTVYLQMNSLKQEDTAVYYCAARRGKVYVSGNGYWGQGTQVTVSS | high polyreactivity
10 | QVQLVDSGGGLVQAGGSLRLSCAASGRTFGRYTMGWYRQAPGKERELVAAITYSGGSTYYADSVKGRFTISRDNAKNTVYLQMNSLKPEDTAVYYCAAEWVYDWYRYGYWGQGTQVTVSS | low polyreactivity
11 | QVQLVDSGGGLVQAGGSLRLSCAASGRTFGVNTMGWYRQAPGKERELVAAISWSGGRTYYADSVKGRFTISRDNAKNTVYLQMNSLKPEDTAVYYCAASWYSRASLYDYWGQGTQVTVSS | high polyreactivity
12 | QVQLVDSGGGLVQAGGSLRLSCAASGRTFPFYAKGLSRQATGKERELVAVITWRGSNTFADSVKGRFTISRDNAKNTVFLQMNSLKPEDTAVYYCAADAWRSYGYRAYDYWGQGTQVTVSS | high polyreactivity
13 | QVQLVDSGGGLVQAGGSLRLSCAASGRTFRGNVMGWYRQAPGKEREFVAAITKSDGSTYYADSVKGRFTISRDNAKNTVYLQKNSLKPEDTAVYYCAARTARTGWPWFRYDYWGQGTQVTVSS | low polyreactivity
14 | QVQLVDSGGGLVQAGGSLRLSCAASGRTFSPYMGWYRQAPGKEREFVAAISKSGGRTYYADSVKGRFTISRDNAKNTVYVQMNSLKPEDTAVYYCAAGAWRGPYSGYYYWGQGTQVTVSS | low polyreactivity
15 | QVQLVDSGGGLVQAGGSLRLSCAASGRTFYYNTMGWYRQAPGKERELVAAITYRGGRTYYADSVKGRFTISRDNAKNTVYLQMNSLKPEDTAVYYCAADWRGPGRTYKINKYDYWGQGTQVTVSS | high polyreactivity
16 | QVQLVDSGGGLVQAGGSLRLSCAASGRTISKYAMGWNRQAPVKERELVAAITGSGGSTHYADSVKGRFTISRDNAKNTVYLQMNSLKPEDSAVYYCAAVPRYQYGYWGQGTQVTVSS | low polyreactivity
17 | QVQLVDSGGGLVQAGGSLRLSCAASGRTSYYNTMGWYRQAPGKERELVAAITGRGDSTYYADSVKGRFTISRDNAKNTVYLQMNSLKPEDTAVYYCAADELHLLYRVSKFVDYNHWGQGTQVTVSS | low polyreactivity
18 | QVQLVDSGGGLVQAGGSLRLSCAASGSIFPSYAIGWYRQAPGKERELVATIGRGGTTNYADSVKGRFTISRDNAKNTVYLQMNSLKPEDTSVYYCNAERIWRYKYGYDYWGQGTQVTVSS | high polyreactivity
19 | QVQLVDSGGGLVQAGGSLRLSCAASGSIFQQYAMGWYRQAPGKESELVAAISWGDGSTYYADSVKGRFPISRDNAKNTVYLQMNSLKPEDTAVYYCNAYASAPLWSLEDDYWGQGTQVTVSS | low polyreactivity
20 | QVQLVDSGGGLVQAGGSLRLSCAASGSIFQYYAMGWYRQAPGKEMELVAAITSVSSTSYADSVKGRFTISRDNAKNTVYLQMNSLKPEDTAVYYCDAAFRRGLLKMDYWGQGTQVTVSS | low polyreactivity
21 | QVQLVDSGGGLVQAGGSLRLSCAASGSIFRGYAMGWYRPAPGKESGLVAAISRDGGSTYYADSVKGRFTISRDNAKNTVYLQMNSLKPEDTAVYYCAADYVAYATYGDGDYWGQGTQVTVSS | high polyreactivity
22 | QVQLVDSGGGLVQAGGSLRLSCAASGSIFRYNAMGWYREAPGKERVLVAAISWNGARTYYADSVKGRFTISRDNAKNTVYLQMNSLKPEDTAVYYCNAGTFTRRRGLDYWGQGTQVTGSS | low polyreactivity

Row | Sequence | polyreactivity (PSR sort gate)
23 | QVQLVDSGGGLVQAGGSLRLSCAASGSIFSAYAMGWYRQAPGKERELVAAITFGGSTYYADSVKGRFTISRDNAKNTVYLQMNSLKPEDTAVYYCNAYYPFVGLYLGHDYWGQGTQVTVSS | low polyreactivity
24 | QVQLVDSGGGLVQAGGSLRLSCAASGSIFVNNTMGWYRQAPGKERELVAAISSSGGSTYYADSVKGRFTISRDNAKNTVYLQMNSLKPEDTAVYYCAAVNGYQYPQYYYNGYDYWGQGTQVTVSS | low polyreactivity
25 | QVQLVDSGGGLVQAGGSLRLSCAASGSIFVTYAMGWSRQAPAKERELVAAITDRGGSTYADSVKGRFTISRDNAKNTVYLQMNSLKPEDTAVYYCAADPDLGDAYDYWGQGTQVTVSS | low polyreactivity
26 | QVQLVDSGGGLVQAGGSLRLSCAASGSSVKTYAMGWYRQAPGKERELVASISYSGDTTYADSVKGRFTISRDNAKNSVYLQMNSLKPEDTAVYYCAAGWYYYYYSYQYWDYDYWGQGTQVTVSS | high polyreactivity
27 | QVQLVDSGGGLVQAGGSLRLSCAASGSTFRGYAMGWYRQSPGKERELVAAITGSAGSTYYADSVKGRFTISRDNAKNTVYLQMNSLKPEDTAVYYCAAATSYRRYYYIYNYWGQGTQVTVSS | high polyreactivity
28 | QVQLVDSGGGLVQAGGSLRLSCAASGSTFRLYAMGWYRQAPGKERELVAAISQRGGSTYYADSVKGRFTISRDNAKNTVYLQKNSLKPEDTAVYYCNTDWYRKWGKPYYYWGQGTQVTVSS | high polyreactivity
29 | QVQLVDSGGGLVQAGGSLRLSCAASGSTFVPNAMGWYRQAPGKERELVASITSDGGTYYADSVKGRFTISRDNAKNTVYLQMNSLKPEDTAVYYCAADDNGVWVISYWWFDYWGQGTQVTVSS | high polyreactivity
30 | QVQLVDSGGGLVQAGGSLRLSCAASGSTLGENAMGWYRQAPGKERELVSAIRQSSGRTYYADSVKGRFTISRDNAKNTVYLQMNSLKPEDTAVYYCANYYWGQGTQVTVST | low polyreactivity
31 | QVQLVDSGGGLVQAGGSLRLSCAASGYIFGDYVMGWYRQAPGKERELVASISSSGDTNYADSVKGRFTISRDNAMNTVYLQMNSLKPEDTAVYYCAAVDWIGRVHGKPWGGDYWGQGTQVTVSS | low polyreactivity
32 | QVQLVDSGGGLVQAGGSLRLSCAASGYTILSYVMGWNRQAPGKERELVAAIRRSGGSTYYADSVKGRFTISRDNAKNTVYLQMNSLKPEDTAVYYCNAPHHRYDWGQGTQVTVSS | high polyreactivity
33 | QVQLVDSGGGLVQAGGSLRLSCAPSGSTFGYNAMGWYRQAPGKERELVAAITWSGGSTYYADSVKGRFTISRDNAKNTVYLQMNSLKPEDTAVYYCAADDWYNSKWHYYSWGQGTQLTVSS | low polyreactivity
34 | QVQLVDSGGGLVQAGGSLRLSCASSGRIFSEYAMGWYRQAPGKERELVAAISRRGGRTYYADSVKGRFTISRDNAKNTVYLQMNSLKPEDTAVYYCAADHGDPGGYDYWGQGTQVTVSS | high polyreactivity
35 | QVQLVDSGGGLVQAGGSLRLSCASSGRIFTKYSMGLYRQAPGKERELVAGISGSGTITYYADSVKGRFTISRDNAKNTVYLQMNSLKPVDSAVYYCNAGRVTNRTPRYDYWGQGTQVSVSS | high polyreactivity
36 | QVQLVDSGGGLVQAGGSLRLSCDASGLIFRYYTMGWYRQAPGKERELVATITKSGSSTYYADSVKGRFTISRDNAKNTVYLQMNSLKPEDTAVYYCAARAYPSSPRGVYAYYYWGQGTQVTVSS | high polyreactivity
37 | QVQLVDSGGGLVQAGGSLRLSCDASGSIFYPYALGCYIQAPGKERELVAAITTSGGSTYYADSVKGRFTISRDNAKNTVYLQMNSLKPEATAVYYCSASYYSDIWPYSVYDLEFYWGQGTQVTVSS | high polyreactivity
38 | QVQLVDSGGGLVQAGGSLRLSCPASGFTFVIYAMGWYRQEPGKESELVAAIRSGGRTYYADSVKGRFTISRDNAKNTVYLQMNSLKPEDTAVYYCAAVPDLKWFGYEYWGQGTQVTVSS | high polyreactivity
39 | QVQLVDSGGGLVQAGGSLRLSCPASGIIIARNTMGWYRQAPGKERELVAAISTRGTTTYYADSVKGRFTISRDNAKNTVYLQMNSLKPEDTAVYSCAAFRVHTDRYNYWGQGTQVTVSS | high polyreactivity
40 | QVQLVDSGGGLVQAGGSLRLSCPASGRIFSWYAMGWYRQAPGKERELVATISSTGGSTYYADSVKGRFTISRDNAKNTVYLQMNSLKAEHTAVYYCNAVVYGIFLYAWYDYWGQGTQVTVSS | low polyreactivity
41 | QVQLVDSGGGLVQAGGSLRLSCPASGSTIAWYDMGWYRQEPGKEREFVAAIDYGGGSTYADSVKGRFTISRDNAKNTVYLQMNSLKPDDTAVYYCNADYWVYLYDYWGQGTLVTVSS | low polyreactivity
42 | QVQLVDSGGGLVQAGGSLRLSCSASGYTFALYSMGWYRQAPGKERELVADINIGGASTYYADSVKGRFTISRDNAKNTVYLQMNSLKPEDTAVYYCAKEYYDGYFPTFDYDYWGQGTQVTVSS | low polyreactivity
43 | QVQLVDSGGGLVQAGGSLSLSCADSGFIFRAYEMGSYRQAPGNERALVAAISGSGGRTYYSDSVNGRFTISRDNAKNTVYLQKNSLKPEDTAVYYGKADFHYSIPGHAFATVYYWGQGTQVTVSS | low polyreactivity
